PMC9902482, “Isoform- and ligand-specific modulation of the adhesion GPCR ADGRL3/Latrophilin3 by a synthetic binder” (Nature Communications, 2023)

B1: synthetic antibody fragment (sAB) LK30 (Fab, V domains shown)
VH: EVQLVESGGGLVQPGGSLRLSCAASGFNIYYSSIHWVRQAPGKGLEWVAYISPYSGSTSYADSVKGRFTISADTSKNTAYLQMNSLRAEDTAVYYCARYKYGQGHMGAFDYWGQGTLVTVSS
VL: DIQMTQSPSSLSASVGDRVTITCRASQSVSSAVAWYQQKPGKAPKLLIYSASSLYSGVPSRFSGSRSGTDFTLTISSLQPEDFATYYCQQSNTELVTFGQGTKVEIK
notes: heavy chain (HC) of LK30 in the deposited structure PDB 8DJG; selected from synthetic phage library E on a humanized antibody Fab scaffold; light chain (LC) of LK30 in the deposited structure PDB 8DJG; Fab format (sAB) expressed from vector pRH2.2; source: E. coli BL21 (Gold), purified (protein L, Resource S ion exchange)
B2: Lec domain of ADGRL3 (domain or fragment, human)
chain: PIPMAVVRRELSCESYPIELRCPGTDVIMIESANYGRTDDKICDSDPAQMENIRCYLPDAYKIMSQRCNNRTQCAVVAGPDVFPDPCPGTYKYLEVQYECVPY
modifications: biotin on the Avi-tag (BirA) in the flow cytometry experiments
notes: ADGRL3 (Latrophilin3), human, N-terminal Lectin (Lec) domain; also called ADGRL3Lec; lectin domain of ADGRL3; source: High Five insect cells (baculovirus), secreted, purified (Ni-NTA, SEC)

Assays:
[1] = biological target: T1, full-length ADGRL3 expressed on HEK293T cells (human, UniProt Q9HAR2); assay: cell-based or functional assay
[2] = biological target: T2, full-length ADGRL1 expressed on HEK293T cells (Rattus norvegicus (assumed for …, UniProt O88917)); assay: flow cytometry on cells; HEK293T cells expressing full-length receptor, increasing concentrations of LK30, 30 min at 4 °C, detected with Alexa Fluor 647 anti-human F(ab')2; apparent affinity from MFI; conditions: one partner purified
T2 construct: ADGRL1 (Latrophilin1), full length; also called Latrophilin1; source: HEK293T, transfected, on the cell surface; not shown: FLAG, N-terminal, kept

[3] = biological target: T1, full-length ADGRL3 expressed on HEK293T …; assay: as above; conditions: one partner purified
[4] = biological target: T3, Lec domain of ADGRL1 (Rattus norvegicus, UniProt O88917); assay: SPR; targets immobilised via His-tag on NTA sensor chip, sAB injected in 2-fold serial dilutions (25, 12.5, 6.25, 3.125 nM), RT, MASS-1 instrument, one-to-one Langmuir fit; conditions: both partners purified
T3 construct: ADGRL1 (Latrophilin1), rat, Lectin (Lec) domain; In the ELISA the target was held on a neutravidin plate, so it was probably biotinylated; also called Lec domain from ADGRL1; ADGRL1 lectin domain; source: baculovirus method (all proteins); not further stated for this fragment

[5] = biological target: T4, Lec domain of ADGRL3 (human, UniProt Q9HAR2, biotin on the Avi-tag (BirA) in the flow cytometry experiments); assay: as above; conditions: both partners purified
T4 construct: ADGRL3 (Latrophilin3), human, N-terminal Lectin (Lec) domain; also called ADGRL3Lec; lectin domain of ADGRL3; source: High Five insect cells (baculovirus), secreted, purified (Ni-NTA, SEC)

[6] = biological target: T4, Lec domain of ADGRL3; assay: flow cytometry on cells; competition: 5 µM ADGRL3 Lec domain pre-bound to TEN2 on HEK293T cells, increasing concentrations of LK30; row of LK30 with the Lec domain; conditions: both partners purified
[7] = biological target: T5, full-length TEN2 expressed on HEK293T cells (UniProt Q9NT68 1-2774); assay: flow cytometry on cells; biotinylated ADGRL3 Lec domain titrated on HEK293T cells expressing full-length TEN2, detected with DyLight 650 neutravidin; conditions: one partner purified
T5 construct: teneurin-2 (TEN2), full length; Co-transfected with dsRed in the cell aggregation assay; also called FL TEN2; teneurin; source: HEK293T, transfected, on the cell surface
T5 sequence (Q9NT68 whole entry, the tested form may be a part): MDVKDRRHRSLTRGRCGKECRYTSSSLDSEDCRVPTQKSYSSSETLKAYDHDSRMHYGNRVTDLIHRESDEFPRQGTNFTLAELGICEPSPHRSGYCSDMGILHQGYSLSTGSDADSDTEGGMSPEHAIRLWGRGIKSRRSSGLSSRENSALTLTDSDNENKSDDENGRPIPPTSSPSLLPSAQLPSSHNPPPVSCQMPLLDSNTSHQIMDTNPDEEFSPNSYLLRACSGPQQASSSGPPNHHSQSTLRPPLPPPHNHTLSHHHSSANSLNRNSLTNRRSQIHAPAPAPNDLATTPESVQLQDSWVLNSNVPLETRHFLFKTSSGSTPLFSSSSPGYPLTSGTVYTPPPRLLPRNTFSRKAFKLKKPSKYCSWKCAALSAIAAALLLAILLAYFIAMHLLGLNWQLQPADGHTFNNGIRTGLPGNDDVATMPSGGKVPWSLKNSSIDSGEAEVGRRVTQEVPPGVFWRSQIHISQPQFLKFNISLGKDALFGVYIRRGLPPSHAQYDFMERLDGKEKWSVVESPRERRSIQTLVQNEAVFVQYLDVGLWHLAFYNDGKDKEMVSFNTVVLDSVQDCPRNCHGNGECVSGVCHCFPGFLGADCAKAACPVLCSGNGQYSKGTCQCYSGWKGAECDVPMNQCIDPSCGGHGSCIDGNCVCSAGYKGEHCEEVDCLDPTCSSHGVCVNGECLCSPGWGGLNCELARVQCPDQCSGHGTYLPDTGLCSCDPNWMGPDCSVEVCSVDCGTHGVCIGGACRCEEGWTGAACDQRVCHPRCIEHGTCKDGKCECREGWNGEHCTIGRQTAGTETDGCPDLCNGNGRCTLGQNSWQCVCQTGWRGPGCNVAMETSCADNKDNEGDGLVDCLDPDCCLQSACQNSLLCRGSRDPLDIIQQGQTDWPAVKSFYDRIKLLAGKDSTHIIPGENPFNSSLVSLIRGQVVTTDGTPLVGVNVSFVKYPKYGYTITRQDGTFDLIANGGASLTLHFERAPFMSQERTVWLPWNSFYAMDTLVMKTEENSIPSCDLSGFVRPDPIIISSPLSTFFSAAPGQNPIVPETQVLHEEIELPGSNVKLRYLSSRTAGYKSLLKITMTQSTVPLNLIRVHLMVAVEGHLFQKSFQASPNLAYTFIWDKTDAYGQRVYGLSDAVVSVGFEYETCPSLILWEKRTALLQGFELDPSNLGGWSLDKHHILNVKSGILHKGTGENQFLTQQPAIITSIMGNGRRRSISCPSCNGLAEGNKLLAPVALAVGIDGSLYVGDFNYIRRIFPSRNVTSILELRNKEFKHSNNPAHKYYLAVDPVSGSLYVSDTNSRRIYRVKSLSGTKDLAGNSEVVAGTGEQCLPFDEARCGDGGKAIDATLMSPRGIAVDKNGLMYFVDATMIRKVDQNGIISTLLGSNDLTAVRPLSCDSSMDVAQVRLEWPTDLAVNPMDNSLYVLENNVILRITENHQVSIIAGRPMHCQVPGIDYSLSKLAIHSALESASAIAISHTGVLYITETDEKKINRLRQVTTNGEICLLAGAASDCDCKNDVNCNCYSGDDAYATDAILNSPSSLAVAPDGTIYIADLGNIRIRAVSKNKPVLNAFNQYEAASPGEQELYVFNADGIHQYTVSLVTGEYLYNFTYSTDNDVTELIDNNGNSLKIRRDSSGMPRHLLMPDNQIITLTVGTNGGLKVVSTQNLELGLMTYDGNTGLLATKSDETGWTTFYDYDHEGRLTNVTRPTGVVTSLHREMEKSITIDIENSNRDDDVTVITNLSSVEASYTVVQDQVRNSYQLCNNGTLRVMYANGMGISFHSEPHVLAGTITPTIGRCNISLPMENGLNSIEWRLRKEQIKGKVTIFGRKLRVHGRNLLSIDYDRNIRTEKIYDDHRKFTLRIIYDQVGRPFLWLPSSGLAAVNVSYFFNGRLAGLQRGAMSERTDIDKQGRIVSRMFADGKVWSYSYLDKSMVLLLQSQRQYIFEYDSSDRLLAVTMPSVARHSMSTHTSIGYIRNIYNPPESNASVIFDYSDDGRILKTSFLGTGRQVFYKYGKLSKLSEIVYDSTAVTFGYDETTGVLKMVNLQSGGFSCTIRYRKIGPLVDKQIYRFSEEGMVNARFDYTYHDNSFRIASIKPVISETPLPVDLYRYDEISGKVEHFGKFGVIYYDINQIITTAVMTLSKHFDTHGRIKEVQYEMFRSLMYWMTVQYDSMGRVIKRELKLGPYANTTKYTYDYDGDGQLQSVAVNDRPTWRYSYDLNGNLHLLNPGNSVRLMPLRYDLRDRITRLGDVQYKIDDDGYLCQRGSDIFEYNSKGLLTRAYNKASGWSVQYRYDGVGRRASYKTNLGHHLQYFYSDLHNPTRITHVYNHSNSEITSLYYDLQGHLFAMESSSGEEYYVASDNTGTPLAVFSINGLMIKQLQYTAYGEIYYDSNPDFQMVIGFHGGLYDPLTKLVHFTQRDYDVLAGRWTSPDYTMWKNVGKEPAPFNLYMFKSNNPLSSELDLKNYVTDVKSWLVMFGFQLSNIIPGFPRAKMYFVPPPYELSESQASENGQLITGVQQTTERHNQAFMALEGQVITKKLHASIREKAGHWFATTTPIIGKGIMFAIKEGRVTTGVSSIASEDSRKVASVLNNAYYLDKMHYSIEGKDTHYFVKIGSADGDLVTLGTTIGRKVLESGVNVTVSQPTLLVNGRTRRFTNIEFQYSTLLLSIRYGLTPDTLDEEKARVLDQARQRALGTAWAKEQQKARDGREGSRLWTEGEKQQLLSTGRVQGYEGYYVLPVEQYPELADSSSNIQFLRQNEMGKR

T1 sequence (Q9HAR2 20-1447): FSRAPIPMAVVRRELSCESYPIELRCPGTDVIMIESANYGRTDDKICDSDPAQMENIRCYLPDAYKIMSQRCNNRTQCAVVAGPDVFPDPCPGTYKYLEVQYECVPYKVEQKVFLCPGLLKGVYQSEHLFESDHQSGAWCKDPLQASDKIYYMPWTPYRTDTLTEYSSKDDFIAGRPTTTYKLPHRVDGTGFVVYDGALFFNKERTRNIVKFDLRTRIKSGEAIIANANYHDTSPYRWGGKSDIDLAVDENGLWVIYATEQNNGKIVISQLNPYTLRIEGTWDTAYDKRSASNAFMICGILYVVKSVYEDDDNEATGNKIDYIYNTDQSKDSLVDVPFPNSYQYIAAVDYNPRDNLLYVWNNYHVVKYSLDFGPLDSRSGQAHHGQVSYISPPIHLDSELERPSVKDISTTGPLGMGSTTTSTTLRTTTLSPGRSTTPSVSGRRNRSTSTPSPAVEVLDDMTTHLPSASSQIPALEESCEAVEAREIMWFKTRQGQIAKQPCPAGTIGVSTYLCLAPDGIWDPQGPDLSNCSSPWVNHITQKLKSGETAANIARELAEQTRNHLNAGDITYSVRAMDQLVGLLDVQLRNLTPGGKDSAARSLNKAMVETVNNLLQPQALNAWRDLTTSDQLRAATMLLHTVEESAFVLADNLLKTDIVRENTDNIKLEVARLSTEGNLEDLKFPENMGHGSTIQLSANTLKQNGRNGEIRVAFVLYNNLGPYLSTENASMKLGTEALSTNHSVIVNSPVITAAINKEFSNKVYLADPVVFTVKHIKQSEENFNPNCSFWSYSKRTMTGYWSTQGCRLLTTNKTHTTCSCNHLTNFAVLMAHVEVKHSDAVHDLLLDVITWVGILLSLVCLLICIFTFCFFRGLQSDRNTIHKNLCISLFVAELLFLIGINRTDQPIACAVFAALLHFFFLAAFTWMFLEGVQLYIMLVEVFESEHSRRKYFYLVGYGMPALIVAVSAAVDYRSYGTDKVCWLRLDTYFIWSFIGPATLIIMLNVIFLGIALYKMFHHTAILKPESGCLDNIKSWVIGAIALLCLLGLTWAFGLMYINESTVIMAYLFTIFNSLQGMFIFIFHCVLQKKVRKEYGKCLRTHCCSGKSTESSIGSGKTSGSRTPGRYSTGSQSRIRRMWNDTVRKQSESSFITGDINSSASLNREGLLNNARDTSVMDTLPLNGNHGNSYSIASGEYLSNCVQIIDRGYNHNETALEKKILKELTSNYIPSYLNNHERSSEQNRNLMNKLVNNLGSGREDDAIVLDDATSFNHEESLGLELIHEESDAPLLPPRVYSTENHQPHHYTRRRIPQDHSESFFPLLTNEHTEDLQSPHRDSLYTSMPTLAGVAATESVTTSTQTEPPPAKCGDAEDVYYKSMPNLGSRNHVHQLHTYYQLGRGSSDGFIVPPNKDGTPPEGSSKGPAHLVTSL

Binder | SRE-luciferase assay in HEK293T cells transfected with ADGRL3, 1 µM LK30: fold increase over basal activity [1] [fold] | SRE-luciferase assay in HEK293T cells transfected with ADGRL3, titration of LK30: EC50 [1] [µM] | Kd [2] [µM] | Kd [3] [µM] | Kd [4] [µM] | Kd [5] [µM] | IC50 [6] [µM] | Kd [7] [µM]
B1 | ~2.5 | 0.042 | 0.147 | 0.131 | 0.011 | 0.007 | 0.193 | 
B2 |  |  |  |  |  |  |  | 0.129
